In PMC8287954, “Assembly of higher-order SMN oligomers is essential for metazoan viability and requires an exposed structural motif present in the YG zipper dimer” (Nucleic Acids Research, 2021):
Where “and” joins values, the source holds several entries; their conditions need not be identical. Identical values can stand only once.

B4: Drosophila melanogaster Gemin2 (natural protein, UniProt Q9VVX0 1-245, looked up)
chain: MQHEPEDQTFQLQALEICEPDSSFDPQKPPESGEEYLMHMFYERKRCPAVVTKRSSKIRNNTGNTTLEMLDNPELPPFKCLLPTPEWRDEQVKSFQAARSQVLVLRKELANNNYDQSGEPPLTSDQEKWKEFCRNQQPLLSTLLHLTQNDLELLLEMLSKWLQDPNTTVDLLHDVWLARWLYATLVCLHLPLEPHVFSTLRYIARTCIHLRNQLKEDEVQRAAPYNLLLTLTVQVFAQNDFKDYI
notes: Drosophila melanogaster Gemin2 (dmGemin2); also called dmGemin2; dmG2; source: E. coli BL21(DE3), purified (Ni-NTA, chitin beads, Superdex 200)

Experiments:
[1] = molecular target: the molecule itself; assay: SEC-MALS; Superdex 200 10/300 GL, 0.5 ml/min, room temperature (20°C), 50 mM HEPES-NaOH pH 7.5, 250 mM NaCl, 5 mM DTT; self-association of the SMN•G2 unit, (SMN•G2)n
[2] = molecular target: the molecule itself; assay: as above; remark: listed apart in the source
[3] = molecular target: B4; assay: SEC; complex reconstituted from separately purified proteins, two molar excess of dmGemin2, HFS tag cut with Ulp1, second Ni-NTA pass, Superdex 200 16/60 at 20°C, 20 mM Na/KPO4 pH 7.0, 300 mM NaCl, 1 mM DTT; conditions: both partners purified
[4] = molecular target: the molecule itself; assay: AUC; sedimentation velocity, 20 mM HEPES–NaOH pH 7.5, 300 mM NaCl, 0.1 mM TCEP, 0.16–1.0 mg/ml, 40 000 rpm; 25°C and 4°C (smaller species at 4°C)
[5] = molecular target: the molecule itself; assay: AUC; sedimentation equilibrium, 4°C, 20 mM Tris-HCl pH7.4, 200 mM NaCl, 5 mM DTT; monomer to dimer
[6] = molecular target: the molecule itself; assay: not stated; shown in Supplementary Figure S2; method not given
[7] = molecular target: the molecule itself; assay: cross-linking; disulfide cross-linking of single-cysteine MBP-YG box fusions, 5 μM, 20 mM Tris-HCl pH 7.4, 200 mM NaCl, 1 mM EDTA, 10 mM maltose, 160 μM diamide, 1 h, 20°C; non-reducing SDS-PAGE

B1: Hs^1-275-GCN4(IL) chimera•Gemin2 (complex)
chain 1: not shown
chain 2: MAWVPAESAVEELMPRLLPVEPCDLTEGFDPSVPPRTPQEYLRRVQIEAAQCPDVVVAQIDPKKLKRKQSVNISLSGCQPAPEGYSPTLQWQQQQVAQFSTVRQNVNKHRSHWKSQQLDSNVTMPKSEDEEGWKKFCLGEKLCADGAVGPATNESPGIDYVQIGFPPLLSIVSRMNQATVTSVLEYLSNWFGERDFTPELGRWLYALLACLEKPLLPEAHSLIRQLARRCSEVRLLVDSKDDERVPALNLLICLVSRYFDQRDLADEPS
[1]
  stoichiometry N: 2

B2: Schizosaccharomyces pombe SMN•Gemin2 complex (complex)
chain 1: MDQSQKEVWDDSELRNAFETALHEFKKYHSIEAKGGVSDPDSRLDGEKLISAARTEESISKLEEGEQMINQQTETTLEGDTHIQQFADNKGLSDEKPETRAAETHQEFMEVPPPIRGLTYDETYKKLIMSWYYAGYYTGLAEGLAKSEQRKD
chain 2: MPSKRKRNPLQYQTSGSLDEETNQRSAFPQIDNNSASESLEYDIPLDGLDYLATVREEARKLVPFVAARREPETRETIPLRKLEIEAGKKSFDPFLRYLLNIIDKEGERLEQYMESSSLDASILPKNLQQWRVYIEHKAPCWAILAVVDLATVLEILESLSSWLEKDAIDLQSQWIFCFCYKLPELLNGEDISTLRSVLKSLRSTHTSFPALQMSASALQAVLVYRYGQKDLFQT
notes: S. pombe SMN (Smn1p); S. pombe Gemin2; also called spSMN•G2; wild-type Smn1p; source: bacterial co-expression, purified as previously described (24)
[2]
  stoichiometry N: 2 and 4

B3: Drosophila melanogaster SMN (natural protein, UniProt Q9VV74 1-226, looked up)
chain: MSDETNAAVWDDSLLVKTYDESVGLAREALARRLADSTNKREEENAAAAEEEAGEISATGGATSPEPVSFKVGDYARATYVDGVDYEGAVVSINEEKGTCVLRYLGYENEQEVLLVDLLPSWGKRVRREQFLIAKKDEDEQLSRPKASAGSHSKTPKSSRRSRISGGLVMPPMPPVPPMIVGQGDGAEQDFVAMLTAWYMSGYYTGLYQGKKEASTTSGKKKTPKK
notes: Drosophila melanogaster SMN (dmSMN); In the reconstitution the HFS tag was cut off with Ulp1 after dmGemin2 was added; also called dmSMN; source: E. coli BL21(DE3), purified (Ni-NTA after lysis in guanidine•HCl, urea wash)
[3]
  binding result: binds
[4]
  binding result: binds

## B4
[5]
  Kd: 33.4 ± 5 µM

B5: MBP-dmSMN^186-220 (domain or fragment, Drosophila melanogaster, UniProt Q9VV74 186-220, looked up)
chain: GAEQDFVAMLTAWYMSGYYTGLYQGKKEASTTSGK
notes: The SEC-SAXS methods print 189-220 for this fusion; also called MBP-dmSMN^189–220; source: expressed from pETDuet at 37°C, purified (amylose resin, Superdex-200); not shown: MBP, N-terminal, kept
[6]
  stoichiometry N: 4 and 8

B6: spSMN(A141Q)•Gemin2 (complex, Schizosaccharomyces pombe)
chain 1: MDQSQKEVWDDSELRNAFETALHEFKKYHSIEAKGGVSDPDSRLDGEKLISAARTEESISKLEEGEQMINQQTETTLEGDTHIQQFADNKGLSDEKPETRAAETHQEFMEVPPPIRGLTYDETYKKLIMSWYYAGYYTGLQEGLAKSEQRKD
chain 2: MPSKRKRNPLQYQTSGSLDEETNQRSAFPQIDNNSASESLEYDIPLDGLDYLATVREEARKLVPFVAARREPETRETIPLRKLEIEAGKKSFDPFLRYLLNIIDKEGERLEQYMESSSLDASILPKNLQQWRVYIEHKAPCWAILAVVDLATVLEILESLSSWLEKDAIDLQSQWIFCFCYKLPELLNGEDISTLRSVLKSLRSTHTSFPALQMSASALQAVLVYRYGQKDLFQT
notes: S. pombe SMN (Smn1p); S. pombe Gemin2; also called spA141Q; source: recombinant; yeast SMN•G2 complexes purified as previously described (24)
[2]
  binding result: binds

B7: spSMN(A145Q)•Gemin2 (complex, Schizosaccharomyces pombe)
chain 1: MDQSQKEVWDDSELRNAFETALHEFKKYHSIEAKGGVSDPDSRLDGEKLISAARTEESISKLEEGEQMINQQTETTLEGDTHIQQFADNKGLSDEKPETRAAETHQEFMEVPPPIRGLTYDETYKKLIMSWYYAGYYTGLAEGLQKSEQRKD
chain 2: MPSKRKRNPLQYQTSGSLDEETNQRSAFPQIDNNSASESLEYDIPLDGLDYLATVREEARKLVPFVAARREPETRETIPLRKLEIEAGKKSFDPFLRYLLNIIDKEGERLEQYMESSSLDASILPKNLQQWRVYIEHKAPCWAILAVVDLATVLEILESLSSWLEKDAIDLQSQWIFCFCYKLPELLNGEDISTLRSVLKSLRSTHTSFPALQMSASALQAVLVYRYGQKDLFQT
notes: S. pombe SMN (Smn1p); S. pombe Gemin2; also called spA145Q; source: recombinant; yeast SMN•G2 complexes purified as previously described (24)
[2]
  binding result: binds

B8: spSMN(Y137H)•Gemin2 (complex, Schizosaccharomyces pombe)
chain 1: MDQSQKEVWDDSELRNAFETALHEFKKYHSIEAKGGVSDPDSRLDGEKLISAARTEESISKLEEGEQMINQQTETTLEGDTHIQQFADNKGLSDEKPETRAAETHQEFMEVPPPIRGLTYDETYKKLIMSWYYAGYHTGLAEGLAKSEQRKD
chain 2: MPSKRKRNPLQYQTSGSLDEETNQRSAFPQIDNNSASESLEYDIPLDGLDYLATVREEARKLVPFVAARREPETRETIPLRKLEIEAGKKSFDPFLRYLLNIIDKEGERLEQYMESSSLDASILPKNLQQWRVYIEHKAPCWAILAVVDLATVLEILESLSSWLEKDAIDLQSQWIFCFCYKLPELLNGEDISTLRSVLKSLRSTHTSFPALQMSASALQAVLVYRYGQKDLFQT
notes: S. pombe SMN (Smn1p); S. pombe Gemin2; also called spY137H; source: recombinant; yeast SMN•G2 complexes purified as previously described (24)
[2]
  binding result: binds

B9: spSMN(G143V)•Gemin2 (complex, Schizosaccharomyces pombe)
chain 1: MDQSQKEVWDDSELRNAFETALHEFKKYHSIEAKGGVSDPDSRLDGEKLISAARTEESISKLEEGEQMINQQTETTLEGDTHIQQFADNKGLSDEKPETRAAETHQEFMEVPPPIRGLTYDETYKKLIMSWYYAGYYTGLAEVLAKSEQRKD
chain 2: MPSKRKRNPLQYQTSGSLDEETNQRSAFPQIDNNSASESLEYDIPLDGLDYLATVREEARKLVPFVAARREPETRETIPLRKLEIEAGKKSFDPFLRYLLNIIDKEGERLEQYMESSSLDASILPKNLQQWRVYIEHKAPCWAILAVVDLATVLEILESLSSWLEKDAIDLQSQWIFCFCYKLPELLNGEDISTLRSVLKSLRSTHTSFPALQMSASALQAVLVYRYGQKDLFQT
notes: S. pombe SMN (Smn1p); S. pombe Gemin2; also called spG143V; source: recombinant; yeast SMN•G2 complexes purified as previously described (24)
[2]
  binding result: binds

B10: MBP-hsSMN^252-294(C289A, N283C) (domain or fragment, human, UniProt Q16637 252-294, looked up)
chain: DSLDDADALGSMLISWYMSGYHTGYYMGFRQCQKEGRASHSLN
notes: human SMN YG box, residues 252-294; also called hsSMN^N283C; source: E. coli BL21(DE3), purified (amylose resin); not shown: MBP, N-terminal, kept
[7]
  binding result: binds

B11: MBP-hsSMN^252-294(C289A, T274C) (domain or fragment, human, UniProt Q16637 252-294, looked up)
chain: DSLDDADALGSMLISWYMSGYHCGYYMGFRQNQKEGRASHSLN
notes: human SMN YG box, residues 252-294; also called hsT274C; source: E. coli BL21(DE3), purified (amylose resin); not shown: MBP, N-terminal, kept
[7]
  binding result: binds

B12: MBP-hsSMN^252-294(C289A, Y277C) (domain or fragment, human, UniProt Q16637 252-294, looked up)
chain: DSLDDADALGSMLISWYMSGYHTGYCMGFRQNQKEGRASHSLN
notes: human SMN YG box, residues 252-294; also called hsY277C; source: E. coli BL21(DE3), purified (amylose resin); not shown: MBP, N-terminal, kept
[7]
  binding result: binds

B13: MBP-hsSMN^252-294(C289A, S262C) (domain or fragment, human, UniProt Q16637 252-294, looked up)
chain: DSLDDADALGCMLISWYMSGYHTGYYMGFRQNQKEGRASHSLN
notes: human SMN YG box, residues 252-294; source: E. coli BL21(DE3), purified (amylose resin); not shown: MBP, N-terminal, kept
[7]
  binding result: binds

B14: MBP-hsSMN^252-294(C289A, R281C) (domain or fragment, human, UniProt Q16637 252-294, looked up)
chain: DSLDDADALGSMLISWYMSGYHTGYYMGFCQNQKEGRASHSLN
notes: as for B13
[7]
  binding result: binds

B15: MBP-spSMN YG box (112–152) A141Y, A145C (domain or fragment, Schizosaccharomyces pombe, UniProt Q09808 112-152, looked up)
chain: PPPIRGLTYDETYKKLIMSWYYAGYYTGLYEGLCKSEQRKD
notes: S. pombe SMN, residues 112-152; SMN residues fused to the penultimate Thr of E. coli MBP with a Gly-Ser linker; also called A145C mutant with an A141Y substitution; source: E. coli BL21(DE3), purified (amylose resin); not shown: MBP, N-terminal, kept
[7]
  binding result: binds
